These results are taken from patent US20050288225A1 (YEDA RESEARCH AND DEVELOPMENT, published 2005).

The target in the experiment is T1, HA-tagged B1 protein (Homo sapiens (Human), UniProt O43353 1-540).
T1 construct: Expressed in transfected 293 cells for co-immunoprecipitation; also called HA-B1
The experiment in a line: co-immunoprecipitation from transfected 293 cells: anti-FLAG IP, anti-HA western blot. Background: In western blotting, separated proteins are transferred to a membrane and probed.

T1 sequence (O43353 whole entry L79F): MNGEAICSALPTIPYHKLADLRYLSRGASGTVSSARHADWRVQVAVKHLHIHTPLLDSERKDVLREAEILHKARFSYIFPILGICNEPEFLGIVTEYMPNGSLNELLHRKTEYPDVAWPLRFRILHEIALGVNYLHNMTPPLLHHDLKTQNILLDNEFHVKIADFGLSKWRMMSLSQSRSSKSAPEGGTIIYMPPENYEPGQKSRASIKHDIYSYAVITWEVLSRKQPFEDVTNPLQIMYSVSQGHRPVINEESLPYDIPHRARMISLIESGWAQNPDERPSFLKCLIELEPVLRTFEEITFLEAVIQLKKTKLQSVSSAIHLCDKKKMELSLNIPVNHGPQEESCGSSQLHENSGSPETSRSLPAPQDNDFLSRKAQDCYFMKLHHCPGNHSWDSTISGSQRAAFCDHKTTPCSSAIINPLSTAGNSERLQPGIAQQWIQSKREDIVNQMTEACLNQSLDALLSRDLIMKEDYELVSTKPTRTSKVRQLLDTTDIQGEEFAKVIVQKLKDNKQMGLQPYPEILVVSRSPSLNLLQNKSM
Method: Seven hours after transfection cells were washed and 18 hours later cells were lysed in a buffer containing 50 mM HEPES pH 7.5, 250 mM NaCl, 0.2% NP-40, 5 mM EDTA, 1 mM phenylmethylsulfonyl fluoride, 2.0 μg/ml aprotinin and 20 μg/ml leupeptin (lysis buffer). Immunoprecipitation was performed by incubation (2hours, 4° C.) of 1 ml aliquots of lysate with anti-FLAG epitope antibody (5 μg/aliquot) and with protein G-agarose beads (30 μl/aliquot). Immunoprecipitates were washed three times with lysis buffer and once with PBS, fractionated by 10% SDS-PAGE and transferred to a nitrocellulose membrane (Schleicher & Schuell, Dassel, Germany). Western blot analysis was performed with anti-HA epitope monoclonal antibodies applied at a dilution of 1:1000, and the ECL kit (Amersham, Buckinghamshire, England).

B1: Flag-tagged TRAF2 (other, UniProt Q12933 1-501, looked up, not shown: small tags and cut ends)
chain: MAAASVTPPGSLELLQPGFSKTLLGTKLEAKYLCSACRNVLRRPFQAQCGHRYCSFCLASILSSGPQNCAACVHEGIYEEGISILESSSAFPDNAARREVESLPAVCPSDGCTWKGTLKEYESCHEGRCPLMLTECPACKGLVRLGEKERHLEHECPERSLSCRHCRAPCCGADVKAHHEVCPKFPLTCDGCGKKKIPREKFQDHVKTCGKCRVPCRFHAIGCLETVEGEKQQEHEVQWLREHLAMLLSSVLEAKPLLGDQSHAGSELLQRCESLEKKTATFENIVCVLNREVERVAMTAEACSRQHRLDQDKIEALSSKVQQLERSIGLKDLAMADLEQKVLEMEASTYDGVFIWKISDFARKRQEAVAGRIPAIFSPAFYTSRYGYKMCLRIYLNGDGTGRGTHLSLFFVVMKGPNDALLRWPFNQKVTLMLLDQNNREHVIDAFRPDVTSSSFQRPVNDMNIASGCPLFCPVSKMEAKNSYVRDDAIFIKAIVDLTGL
notes: Expressed in transfected 293 cells; also called FL-TRAF2
On to B1, for which the binding result was “no binding”.
